The supplement of paper PMC10567573

B1: ZNF263 (parent)
chain: FGGNPRFLSLHRAHLGEEAHKCLE

Variants of: B1
Assay: protein stability index of a GFP-peptide fusion (GPS, HEK-293T) (PSI 1-6); higher = more stable
Conditions: c terminus: a fixed tail appended
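Also: lentivirally expressed fusions sorted by FACS into six bins by GFP to DsRed ratio, PSI derived from sequencing read proportions per bin multiplied by bin number.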

Variant	protein stability index
FGGNPRFLSLHSAHLGEEAHKCLE [R12S]	2.17
FGGNPRFLSLHHAHLGEEAHKCLE [R12H]	1.71
FGGNPRFLSLHKAHLGEEAHKCLE [R12K]	1.61
FGGNPRFLSLHIAHLGEEAHKCLE [R12I]	1.84
FGGNPRFLSLHCAHLGEEAHKCLE [R12C]	1.87
FGGNPRFLSLHGAHLGEEAHKCLE [R12G]	1.81
FGGNPRFLSLHAAHLGEEAHKCLE [R12A]	2.08
FGGNPRFLSLHTAHLGEEAHKCLE [R12T]	1.95
FGGNPRFLSLHWAHLGEEAHKCLE [R12W]	1.58
FGGNPRFLSLHVAHLGEEAHKCLE [R12V]	3.14
FGGNPRFLSLHMAHLGEEAHKCLE [R12M]	2.36
FGGNPRFLSLHQAHLGEEAHKCLE [R12Q]	2.22
FGGNPRFLSLHEAHLGEEAHKCLE [R12E]	1.76
FGGNPRFLSLHLAHLGEEAHKCLE [R12L]	1.56
FGGNPRFLSLHNAHLGEEAHKCLE [R12N]	2.49
FGGNPRFLSLHDAHLGEEAHKCLE [R12D]	1.85
FGGNPRFLSLHPAHLGEEAHKCLE [R12P]	1.46
FGGNPRFLSLHYAHLGEEAHKCLE [R12Y]	1.24
FGGNPRFLSLHFAHLGEEAHKCLE [R12F]	2.35
FGGNPRFLSLHRFHLGEEAHKCLE [A13F]	2.52
FGGNPRFLSLHRHHLGEEAHKCLE [A13H]	2.26
FGGNPRFLSLHRYHLGEEAHKCLE [A13Y]	1.72
FGGNPRFLSLHRPHLGEEAHKCLE [A13P]	1.56
FGGNPRFLSLHRIHLGEEAHKCLE [A13I]	1.35

Variant	protein stability index
FGGNPRFLSLHRCHLGEEAHKCLE [A13C]	1.71
FGGNPRFLSLHRSHLGEEAHKCLE [A13S]	1.71
FGGNPRFLSLHRGHLGEEAHKCLE [A13G]	1.99
FGGNPRFLSLHRKHLGEEAHKCLE [A13K]	1.94
FGGNPRFLSLHRDHLGEEAHKCLE [A13D]	1.81
FGGNPRFLSLHRMHLGEEAHKCLE [A13M]	2.21
FGGNPRFLSLHRQHLGEEAHKCLE [A13Q]	1.48
FGGNPRFLSLHREHLGEEAHKCLE [A13E]	1.66
FGGNPRFLSLHRLHLGEEAHKCLE [A13L]	1.43
FGGNPRFLSLHRNHLGEEAHKCLE [A13N]	2.04
FGGNPRFLSLHRVHLGEEAHKCLE [A13V]	1.79
FGGNPRFLSLHRRHLGEEAHKCLE [A13R]	2.08
FGGNPRFLSLHRTHLGEEAHKCLE [A13T]	1.98
FGGNPRFLSLHRWHLGEEAHKCLE [A13W]	1.81
FGGNPRFLSLCRAHLGEEAHKCLE [H11C]	2.23
FGGNPRFLSLNRAHLGEEAHKCLE [H11N]	1.8
FGGNPRFLSLIRAHLGEEAHKCLE [H11I]	1.87
FGGNPRFLSLERAHLGEEAHKCLE [H11E]	2.01
FGGNPRFLSLPRAHLGEEAHKCLE [H11P]	1.75
FGGNPRFLSLYRAHLGEEAHKCLE [H11Y]	3.3
FGGNPRFLSLARAHLGEEAHKCLE [H11A]	1.41
FGGNPRFLSLGRAHLGEEAHKCLE [H11G]	2.71
FGGNPRFLSLKRAHLGEEAHKCLE [H11K]	1.91
FGGNPRFLSLQRAHLGEEAHKCLE [H11Q]	1.6

Variant	protein stability index
FGGNPRFLSLTRAHLGEEAHKCLE [H11T]	3.17
FGGNPRFLSLDRAHLGEEAHKCLE [H11D]	2.22
FGGNPRFLSLSRAHLGEEAHKCLE [H11S]	3.19
FGGNPRFLSLRRAHLGEEAHKCLE [H11R]	1.91
FGGNPRFLSLFRAHLGEEAHKCLE [H11F]	2.41
FGGNPRFLSLVRAHLGEEAHKCLE [H11V]	2.55
FGGNPRFLNLHRAHLGEEAHKCLE [S9N]	1.55
FGGNPRFLLLHRAHLGEEAHKCLE [S9L]	2.25
FGGNPRFLELHRAHLGEEAHKCLE [S9E]	1.97
FGGNPRFLVLHRAHLGEEAHKCLE [S9V]	1.71
FGGNPRFLHLHRAHLGEEAHKCLE [S9H]	1.8
FGGNPRFLPLHRAHLGEEAHKCLE [S9P]	2.1
FGGNPRFLALHRAHLGEEAHKCLE [S9A]	1.52
FGGNPRFLYLHRAHLGEEAHKCLE [S9Y]	3.04
FGGNPRFLDLHRAHLGEEAHKCLE [S9D]	1.34
FGGNPRFLCLHRAHLGEEAHKCLE [S9C]	2.16
FGGNPRFLQLHRAHLGEEAHKCLE [S9Q]	2.9
FGGNPRFLMLHRAHLGEEAHKCLE [S9M]	1.15
FGGNPRFLRLHRAHLGEEAHKCLE [S9R]	1.87
FGGNPRFLTLHRAHLGEEAHKCLE [S9T]	1.8
FGGNPRFLILHRAHLGEEAHKCLE [S9I]	2.59
FGGNPRFLFLHRAHLGEEAHKCLE [S9F]	2.14
FGGNPRFLKLHRAHLGEEAHKCLE [S9K]	1.64
FGGNPRFLSLHRAHLTEEAHKCLE [G16T]	1.94

Variant	protein stability index
FGGNPRFLSLHRAHLCEEAHKCLE [G16C]	1.83
FGGNPRFLSLHRAHLKEEAHKCLE [G16K]	1.62
FGGNPRFLSLHRAHLDEEAHKCLE [G16D]	1.63
FGGNPRFLSLHRAHLHEEAHKCLE [G16H]	1.7
FGGNPRFLSLHRAHLVEEAHKCLE [G16V]	2.42
FGGNPRFLSLHRAHLNEEAHKCLE [G16N]	1.92
FGGNPRFLSLHRAHLSEEAHKCLE [G16S]	2.06
FGGNPRFLSLHRAHLWEEAHKCLE [G16W]	1.87
FGGNPRFLSLHRAHLEEEAHKCLE [G16E]	2.51
FGGNPRFLSLHRAHLPEEAHKCLE [G16P]	2.12
FGGNPRFLSLHRAHLLEEAHKCLE [G16L]	2.55
FGGNPRFLSLHRAHLREEAHKCLE [G16R]	1.64
FGGNPRFLSLHRAHLAEEAHKCLE [G16A]	2.1
FGGNPRFLSLHRAHLIEEAHKCLE [G16I]	2.06
FGGNPRFLSLHRAHLFEEAHKCLE [G16F]	1.9
FGGNPRFLSLHRAHLQEEAHKCLE [G16Q]	2.76
FGGNPRFLSLHRAHLMEEAHKCLE [G16M]	2.19
FGGNPRFLSTHRAHLGEEAHKCLE [L10T]	1.99
FGGNPRFLSHHRAHLGEEAHKCLE [L10H]	2.17
FGGNPRFLSWHRAHLGEEAHKCLE [L10W]	3.91
FGGNPRFLSNHRAHLGEEAHKCLE [L10N]	2.22
FGGNPRFLSFHRAHLGEEAHKCLE [L10F]	1.8
FGGNPRFLSDHRAHLGEEAHKCLE [L10D]	2.47
FGGNPRFLSGHRAHLGEEAHKCLE [L10G]	1.34

Variant	protein stability index
FGGNPRFLSSHRAHLGEEAHKCLE [L10S]	1.62
FGGNPRFLSQHRAHLGEEAHKCLE [L10Q]	2
FGGNPRFLSEHRAHLGEEAHKCLE [L10E]	2.64
FGGNPRFLSVHRAHLGEEAHKCLE [L10V]	2.66
FGGNPRFLSIHRAHLGEEAHKCLE [L10I]	2.06
FGGNPRFLSMHRAHLGEEAHKCLE [L10M]	2.02
FGGNPRFLSYHRAHLGEEAHKCLE [L10Y]	2.33
FGGNPRFLSPHRAHLGEEAHKCLE [L10P]	2.01
FGGNPRFLSAHRAHLGEEAHKCLE [L10A]	1.74
FGGNPRFLSRHRAHLGEEAHKCLE [L10R]	2.69
FGGNPRFLSKHRAHLGEEAHKCLE [L10K]	2.24
FGGNPRFLSLHRAHNGEEAHKCLE [L15N]	1.7
FGGNPRFLSLHRAHRGEEAHKCLE [L15R]	2.05
FGGNPRFLSLHRAHGGEEAHKCLE [L15G]	1.89
FGGNPRFLSLHRAHEGEEAHKCLE [L15E]	1.7
FGGNPRFLSLHRAHSGEEAHKCLE [L15S]	1.73
FGGNPRFLSLHRAHWGEEAHKCLE [L15W]	2.28
FGGNPRFLSLHRAHVGEEAHKCLE [L15V]	1.34
FGGNPRFLSLHRAHCGEEAHKCLE [L15C]	3.76
FGGNPRFLSLHRAHTGEEAHKCLE [L15T]	1.55
FGGNPRFLSLHRAHAGEEAHKCLE [L15A]	1.83
FGGNPRFLSLHRAHMGEEAHKCLE [L15M]	1.62
FGGNPRFLSLHRAHQGEEAHKCLE [L15Q]	1.86
FGGNPRFLSLHRAHDGEEAHKCLE [L15D]	2.46

Variant	protein stability index
FGGNPRFLSLHRAHIGEEAHKCLE [L15I]	1.54
FGGNPRFLSLHRAHKGEEAHKCLE [L15K]	2.06
FGGNPRFLSLHRAHYGEEAHKCLE [L15Y]	2.58
FGGNPRFLSLHRAHPGEEAHKCLE [L15P]	1.94
FGGNPRFLSLHRAHFGEEAHKCLE [L15F]	1.27
FGGNPRFLSLHRAHHGEEAHKCLE [L15H]	2.33
FGGNPRFLSLHRAHLGENAHKCLE [E18N]	1.07
FGGNPRFLSLHRAHLGETAHKCLE [E18T]	1.46
FGGNPRFLSLHRAHLGESAHKCLE [E18S]	2.34
FGGNPRFLSLHRAHLGERAHKCLE [E18R]	1.62
FGGNPRFLSLHRAHLGEDAHKCLE [E18D]	1.87
FGGNPRFLSLHRAHLGELAHKCLE [E18L]	2.33
FGGNPRFLSLHRAHLGEFAHKCLE [E18F]	1.85
FGGNPRFLSLHRAHLGEIAHKCLE [E18I]	2.34
FGGNPRFLSLHRAHLGEVAHKCLE [E18V]	2.43
FGGNPRFLSLHRAHLGEKAHKCLE [E18K]	1.39
FGGNPRFLSLHRAHLGEMAHKCLE [E18M]	1.75
FGGNPRFLSLHRAHLGEPAHKCLE [E18P]	2.05
FGGNPRFLSLHRAHLGECAHKCLE [E18C]	2.12
FGGNPRFLSLHRAHLGEHAHKCLE [E18H]	1.47
FGGNPRFLSLHRAHLGEQAHKCLE [E18Q]	1.87
FGGNPRFLSLHRAHLGEGAHKCLE [E18G]	1.61
FGGNPRFLSLHRAHLGEAAHKCLE [E18A]	1.77
FGGNPRFLSLHRAHLGFEAHKCLE [E17F]	2.94

Variant	protein stability index
FGGNPRFLSLHRAHLGCEAHKCLE [E17C]	2.37
FGGNPRFLSLHRAHLGLEAHKCLE [E17L]	1.25
FGGNPRFLSLHRAHLGWEAHKCLE [E17W]	2.12
FGGNPRFLSLHRAHLGKEAHKCLE [E17K]	2.5
FGGNPRFLSLHRAHLGHEAHKCLE [E17H]	1.82
FGGNPRFLSLHRAHLGREAHKCLE [E17R]	1.78
FGGNPRFLSLHRAHLGAEAHKCLE [E17A]	1.42
FGGNPRFLSLHRAHLGIEAHKCLE [E17I]	1.19
FGGNPRFLSLHRAHLGGEAHKCLE [E17G]	1.3
FGGNPRFLSLHRAHLGTEAHKCLE [E17T]	1.73
FGGNPRFLSLHRAHLGDEAHKCLE [E17D]	1.36
FGGNPRFLSLHRAHLGYEAHKCLE [E17Y]	1.56
FGGNPRFLSLHRAHLGQEAHKCLE [E17Q]	1.85
FGGNPRFLSLHRAHLGMEAHKCLE [E17M]	2.82
FGGNPRFLSLHRAHLGSEAHKCLE [E17S]	2.07
FGGNPRFLSLHRAHLGNEAHKCLE [E17N]	1.97
FGGNPRFLSLHRAHLGPEAHKCLE [E17P]	1.41
FGGNPRFVSLHRAHLGEEAHKCLE [L8V]	2.5
FGGNPRFQSLHRAHLGEEAHKCLE [L8Q]	1.66
FGGNPRFTSLHRAHLGEEAHKCLE [L8T]	2.77
FGGNPRFYSLHRAHLGEEAHKCLE [L8Y]	3.2
FGGNPRFWSLHRAHLGEEAHKCLE [L8W]	3.8
FGGNPRFPSLHRAHLGEEAHKCLE [L8P]	2.01
FGGNPRFRSLHRAHLGEEAHKCLE [L8R]	2.27

Variant	protein stability index
FGGNPRFSSLHRAHLGEEAHKCLE [L8S]	2.03
FGGNPRFLSLHRAELGEEAHKCLE [H14E]	1.15
FGGNPRFLSLHRARLGEEAHKCLE [H14R]	1.24
FGGNPRFLSLHRALLGEEAHKCLE [H14L]	1.46
FGGNPRFLSLHRAMLGEEAHKCLE [H14M]	1.69
FGGNPRFLSLHRAFLGEEAHKCLE [H14F]	2.55
FGGNPRFLSLHRAVLGEEAHKCLE [H14V]	1.96
FGGNPRFLSLHRANLGEEAHKCLE [H14N]	1.49
FGGNPRFLSLHRAWLGEEAHKCLE [H14W]	2.42
FGGNPRFLSLHRAYLGEEAHKCLE [H14Y]	1.86
FGGNPRFLSLHRAKLGEEAHKCLE [H14K]	1.81
FGGNPRFLSLHRASLGEEAHKCLE [H14S]	1.35
FGGNPRFLSLHRAQLGEEAHKCLE [H14Q]	2.6
FGGNPRFLSLHRAALGEEAHKCLE [H14A]	1.74
FGGNPRFLSLHRADLGEEAHKCLE [H14D]	2.56
FGGNPRFLSLHRATLGEEAHKCLE [H14T]	3.21
FGGNPRFLSLHRAILGEEAHKCLE [H14I]	3.64
FGGNPRFLSLHRAPLGEEAHKCLE [H14P]	1.59
FGGNPRFLSLHRAGLGEEAHKCLE [H14G]	1.95
FGGNPRFLSLHRACLGEEAHKCLE [H14C]	1.95
